Data reported in patent publication US9744220B2, “Compositions and methods for treating inflammatory diseases” (priority 2013, dated 2017).

Test system: cardiac and hepatic stem cell markers
Assay: Intravenous sPDNF into naïve mice, stem cell markers by real time PCR
Assay type: in vivo
Settings: independently of TLR signaling
Description: FIG. 2A is a graph showing stem cell marker expression in mice administered sPDNF. One set of three wild type C57BL/6 mice received intravenous (IV) PBS without (PBS) or with sPDNF (2 mg/kg) at 0, 3 and 24 hours (sPDNF 1d), and a second set IV sPDNF (2 mg/kg) for 6 days (sPDNF 6d). Mice were sacrificed 3 hr post injection and the indicated stem cells markers were quantified in the ventricles by real time PCR, and normalized to HPRT; *, p<0.05, **, p<0.001, ***, p<0.0001; SCF, stem cell factor, ns, not significant. FIG. 2B is a graph showing stem cell marker expression in MyD88^−/− mice administered sPDNF. TLR-deficient MyD88^−/− mice (C57BL/6 background) (2/group) were injected IV with a single dose of sPDNF (2 mg/kg), sacrificed at 3 hours post-injection, and the indicated cardiac stem cell markers assessed by qPCR. […] Cardiac Sca-1 and SCF transcripts were quantified by qPCR; **, P<0.001; ***, P<0.0005. FIG. 2D is a graph showing quantitation of Sca-1 expression in various organs of mice administered sPDNF. C57BL/6 mice (3 per group), average of two experiments) were injected IV with sPDNF at 4 mg/kg body weight or PBS, sacrificed 3 hours later, and Sca-1 mRNA quantified by qPCR in the liver, heart, colon and bone marrow (*, P<0.05, **, P<0.001; ns, not significant; dotted line represents Sca-1 mRNA of vehicle-treated mice set at 1.0, data are representative of 2 experiments. […]

B1: sPDNF: N-terminal short-form of T cruzi PDNF that contains Trk-binding sites, recombinant; amino acids 1-588 of SEQ ID NO: 2; JR-100 is the commercial name (protein, listed as Trypanosoma cruzi)
chain: MGKTVVVASRMFWLMFFVPLLLAICPSEPAYALAPGSSRVELFKRKNSTVPFEDKAGKVTERVVHSFRLPALVNVDGVMVAIADARYDTSNDNSLIDTVAKYSVDDGETWETQIAIKNSRVSSVSRVVDPTVIVKGNKLYVLVGSYYSSRSYWSSHGDARDWDILLAVGEVTKSTAGGKITASIKWGSPVSLKKFFPAEMEGMHTNQFLGGAGVAIVASNGNLVYPVQVTNKKKQVFSKIFYSEDDGKTWKFGKGRSDFGCSEPVALEWEGKLIINTRVDWKRRLVYESSDMEKPWVEAVGTVSRVWGPSPKSNQPGSQSSFTAVTIEGMRVMLFTHPLNFKGRWLRDRLNLWLTDNQRIYNVGQVSIGDENSAYSSVLYKDDKLYCLHEINTDEVYSLVFARLVGELRIIKSVLRSWKNWDSHLSSICTPADPAASSSESGCGPAVTTVGLVGFLSGNASQNVWEDAYRCVNASTANAERVRNGLKFAGVGGGALWPVSQQGQNQRYRFANHAFTLVASVTIHEAPRAASPLLGASLDSSGGKKLLGLSYDEKHQWQPIYGSTPVTPTGSWETGKRYHLVLTMANKI
expression of cardiac and hepatic stem cell markers: increased expression
